{"source": "FireProtDB (doi:10.1016/j.jmb.2008.02.039)", "proteins": {"B1": {"name": "Ribonuclease HII wild type, O74035 (protein)", "chain": "MKIAGIDEAGRGPVIGPMVIAAVVVDENSLPKLEELKVRDSKKLTPKRREKLFNEILGVLDDYVILELPPDVIGSREGTLNEFEVENFAKALNSLKVKPDVIYADAADVDEERFARELGERLNFEAEVVAKHKADDIFPVVSAASILAKVTRDRAVEKLKEEYGEIGSGYPSDPRTRAFLENYYREHGEFPPIVRKGWKTLKKIAEKVESEKKAEERQATLDRYFRKV"}}, "conditions": "Thermococcus kodakarensis (strain ATCC BAA-918 / JCM 12380 / KOD1); pH 9; 50 °C; GdnHCl; CD; Tris-HCl 20 mM; reversible: Yes; whole UniProt chain shown", "data": [{"protein": "B1", "values": [{"measurement": "denaturant m value", "value": 5.64, "unit": "kcal/mol/M"}, {"measurement": "denaturant midpoint (higher = more stable)", "value": 1.85, "unit": "M"}, {"measurement": "unfolding free energy", "value": 10.4, "unit": "kcal/mol"}]}]}
